Laboratory results from article doi:10.1101/2019.12.30.891283 (bioRxiv, 2019).

Target: the molecule itself
Assay: native MS

B1: enoyl-ACP reductase (FabI) from E. coli (enzyme)
chain: MGFLSGKRILVTGVASKLSIAYGIAQAMHREGAELAFTYQNDKLKGRVEEFAAQLGSDIVLQCDVAEDASIDTMFAELGKVWPKFDGFVHSIGFAPGDQLDGDYVNAVTREGFKIAHDISSYSFVAMAKACRSMLNPGSALLTLSYLGAERAIPNYNVMGLAKASLEANVRYMANAMGPEGVRVNAISAGPIRTLAASGIKDFRKMLAHCEAVTPIRRTVTIEDVGNSAAFLCSDLSAGISGEVVHVDGGFSIAAMNELELK
  stoichiometry N: 4
